# Read-outs that look alike come from different tables or passages of the source.
# T1: W614A peptide (HER2 603-622 with W614A) (human)
# T1 peptide: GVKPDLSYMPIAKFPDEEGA
# T2: G603A peptide (HER2 603-622 with G603A) (human)
# T2 peptide: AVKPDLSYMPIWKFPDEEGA
# T3: P606A peptide (HER2 603-622 with P606A) (human)
# T3 peptide: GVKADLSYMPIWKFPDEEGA
# T4: M611A peptide (HER2 603-622 with M611A) (human)
# T4 peptide: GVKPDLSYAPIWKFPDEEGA
# T5: A622G peptide (HER2 603-622 with A622G) (human)
# T5 peptide: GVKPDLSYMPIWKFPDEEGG
# T6: HER2 peptide p603-622 (amino acids 603 to 622 of human HER2) (human)
# T6 construct: Synthetic peptide; also called wild-type HER2 peptide
# T6 peptide: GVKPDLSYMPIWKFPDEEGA
# T7: D607A peptide (HER2 603-622 with D607A) (human)
# T7 peptide: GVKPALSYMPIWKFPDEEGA
# T8: P617A peptide (HER2 603-622 with P617A) (human)
# T8 peptide: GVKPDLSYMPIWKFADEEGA
# T9: K605A peptide (HER2 603-622 with K605A) (human)
# T9 peptide: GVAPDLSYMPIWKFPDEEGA
# T10: E619A peptide (HER2 603-622 with E619A) (human)
# T10 peptide: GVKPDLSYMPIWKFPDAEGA
# T11: V604A peptide (HER2 603-622 with V604A) (human)
# T11 peptide: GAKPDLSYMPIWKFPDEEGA
# T12: P612A peptide (HER2 603-622 with P612A) (human)
# T12 peptide: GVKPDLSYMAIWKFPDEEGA
# T13: G621A peptide (HER2 603-622 with G621A) (human)
# T13 peptide: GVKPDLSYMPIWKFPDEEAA
# T14: S609A peptide (HER2 603-622 with S609A) (human)
# T14 peptide: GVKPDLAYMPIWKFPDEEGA
# T15: E620A peptide (HER2 603-622 with E620A) (human)
# T15 peptide: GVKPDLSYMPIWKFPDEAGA
# T16: Y610A peptide (HER2 603-622 with Y610A) (human)
# T16 peptide: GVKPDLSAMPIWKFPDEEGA
# T17: D618A peptide (HER2 603-622 with D618A) (human)
# T17 peptide: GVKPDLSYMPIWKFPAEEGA
# B1: H2Mab-250 antibody (antibody, V domains shown)
# VH: EVQLVESGGGLVQPGGSLKLSCAASGFTFSNYGMSWVRQTPDRRLELVATINNNGGGTYYPDSVKGRFTISRDNAKNTLYLQMSSLKSEDTAMYYCTSPGLLWDAWGAGTTVTVSS
# VL: not shown
# notes: Mouse monoclonal from a hybridoma (immunogen HER2ec made in LN229 cells); also called antibody of the present invention
# B2: H2Mab-214 antibody (antibody, V domains shown)
# VH: QVTLKESGPGILQPSQTLSLTCSFSGFSLSTSGMGVSWIRQPSGKGLEWLAHIFWDDDKRYNPSLKSRLTISKDTSRNKVFLKITSVDTADTATYYCARRVVATDWYFDVWGAGTTVTVSS
# VL: DIVLTQSPASLAVSLGQRATISCRASESVEYYGTTLMQWYQQKPGQPPKLLIYAASKVESGVPARFSGSGSGTDFSLNIHPVEEDDVAMYFCQQSRKVPLTFGAGTKLELKR
# notes: as for B1
# Key:
# [1] = target: T1, W614A peptide (HER2 603-622 with W614A); assay: SPR Biacore, mAb on chip, peptide analyte, equilibrium analysis (ka N.D.)
# [2] = target: T2, G603A peptide (HER2 603-622 with G603A); assay: SPR Biacore, mAb on chip, peptide analyte, 1:1 fit
# [3] = target: T3, P606A peptide (HER2 603-622 with P606A); assay: SPR Biacore, mAb on chip, peptide analyte, 1:1 fit
# [4] = target: T4, M611A peptide (HER2 603-622 with M611A); assay: SPR Biacore, mAb on chip, peptide analyte, 1:1 fit
# [5] = target: T5, A622G peptide (HER2 603-622 with A622G); assay: SPR Biacore, mAb on chip, peptide analyte, 1:1 fit
# [6] = target: T18, HER2-F616A expressed on CHO-K1 cells (human, UniProt P04626 23-1255); assay: flow cytometry on CHO-K1 cells expressing HER2-F616A
# T18 construct: also called F616A point mutant; not shown: PA tag at the N terminus; RAP tag and MAP tag at the C terminus
# [7] = target: T6, HER2 peptide p603-622 (amino acids 603 …); assay: SPR Biacore, mAb on chip, peptide analyte, 1:1 fit
# [8] = target: T2, G603A peptide (HER2 603-622 with G603A); assay: SPR Biacore, mAb on chip, peptide analyte, 1:1 fit
# [9] = target: T7, D607A peptide (HER2 603-622 with D607A); assay: SPR Biacore, mAb on chip, peptide analyte, 1:1 fit;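 also: binding measured at 25 °C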
# [10] = target: T8, P617A peptide (HER2 603-622 with P617A); assay: SPR Biacore, mAb on chip, peptide analyte, 1:1 fit;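 also: binding measured at 25 °C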
# [11] = target: T9, K605A peptide (HER2 603-622 with K605A); assay: SPR Biacore, mAb on chip, peptide analyte, 1:1 fit;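 also: binding measured at 25 °C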
# [12] = target: T3, P606A peptide (HER2 603-622 with P606A); assay: SPR Biacore, mAb on chip, peptide analyte, 1:1 fit
# [13] = target: T4, M611A peptide (HER2 603-622 with M611A); assay: SPR Biacore, mAb on chip, peptide analyte, 1:1 fit
# [14] = target: T10, E619A peptide (HER2 603-622 with E619A); assay: SPR Biacore, mAb on chip, peptide analyte, 1:1 fit;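 also: binding measured at 25 °C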
# [15] = target: T11, V604A peptide (HER2 603-622 with V604A); assay: SPR Biacore, mAb on chip, peptide analyte, 1:1 fit;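 also: binding measured at 25 °C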
# [16] = target: T12, P612A peptide (HER2 603-622 with P612A); assay: SPR Biacore, mAb on chip, peptide analyte, 1:1 fit;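 also: binding measured at 25 °C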
# [17] = target: T5, A622G peptide (HER2 603-622 with A622G); assay: SPR Biacore, mAb on chip, peptide analyte, 1:1 fit
# [18] = target: T13, G621A peptide (HER2 603-622 with G621A); assay: SPR Biacore, mAb on chip, peptide analyte, 1:1 fit
# [19] = target: T14, S609A peptide (HER2 603-622 with S609A); assay: SPR Biacore, mAb on chip, peptide analyte, 1:1 fit
# [20] = target: T15, E620A peptide (HER2 603-622 with E620A); assay: SPR Biacore, mAb on chip, peptide analyte, 1:1 fit
# [21] = target: T16, Y610A peptide (HER2 603-622 with Y610A); assay: SPR Biacore, mAb on chip, peptide analyte, 1:1 fit
# [22] = target: T17, D618A peptide (HER2 603-622 with D618A); assay: SPR Biacore, mAb on chip, peptide analyte, 1:1 fit
binder,measurement,setting,value
B1,Kd,[1],1050 µM
same,Kd,[2],0.00587 µM
same,koff,[2],0.00043 s⁻¹
same,kon,[2],73300 M⁻¹ s⁻¹
same,Kd,[3],0.00534 µM
same,koff,[3],0.000393 s⁻¹
same,kon,[3],73600 M⁻¹ s⁻¹
same,Kd,[4],0.00745 µM
same,koff,[4],0.000445 s⁻¹
same,kon,[4],59700 M⁻¹ s⁻¹
same,Kd,[5],0.00687 µM
same,koff,[5],0.000453 s⁻¹
same,kon,[5],65900 M⁻¹ s⁻¹
same,binding result,[6],binds
B2,Kd,[7],0.0228 µM
same,koff,[7],0.00543 s⁻¹
same,kon,[7],238000 M⁻¹ s⁻¹
same,Kd,[8],0.0169 µM
same,koff,[8],0.00564 s⁻¹
same,kon,[8],335000 M⁻¹ s⁻¹
same,Kd,[9],0.0176 µM
same,koff,[9],0.00588 s⁻¹
same,kon,[9],334000 M⁻¹ s⁻¹
same,Kd,[10],0.0439 µM
same,koff,[10],0.00716 s⁻¹
same,kon,[10],163000 M⁻¹ s⁻¹
same,Kd,[11],0.0265 µM
same,koff,[11],0.00643 s⁻¹
same,kon,[11],243000 M⁻¹ s⁻¹
same,Kd,[12],0.0176 µM
same,koff,[12],0.00578 s⁻¹
same,kon,[12],329000 M⁻¹ s⁻¹
same,Kd,[13],0.0341 µM
same,koff,[13],0.00774 s⁻¹
same,kon,[13],227000 M⁻¹ s⁻¹
same,Kd,[14],0.0662 µM
same,koff,[14],0.0111 s⁻¹
same,kon,[14],168000 M⁻¹ s⁻¹
same,Kd,[15],0.0227 µM
same,koff,[15],0.00619 s⁻¹
same,kon,[15],273000 M⁻¹ s⁻¹
same,Kd,[16],0.0468 µM
same,koff,[16],0.0125 s⁻¹
same,kon,[16],267000 M⁻¹ s⁻¹
same,Kd,[17],0.0155 µM
same,koff,[17],0.00567 s⁻¹
same,kon,[17],366000 M⁻¹ s⁻¹
same,Kd,[18],0.0204 µM
same,koff,[18],0.0059 s⁻¹
same,kon,[18],290000 M⁻¹ s⁻¹
same,Kd,[19],0.0332 µM
same,koff,[19],0.00659 s⁻¹
same,kon,[19],199000 M⁻¹ s⁻¹
same,Kd,[20],0.042 µM
same,koff,[20],0.00762 s⁻¹
same,kon,[20],182000 M⁻¹ s⁻¹
same,Kd,[21],0.0267 µM
same,koff,[21],0.00603 s⁻¹
same,kon,[21],226000 M⁻¹ s⁻¹
same,Kd,[22],0.0491 µM
same,koff,[22],0.0125 s⁻¹
same,kon,[22],254000 M⁻¹ s⁻¹
